Blank lines part the entries; values can stand above or below the molecule they belong to.
Legend:
[1] = biological target: Fc fusion protein of Human CTLA4 (human) (UniProt P16410); assay: BLI (Fortebio), human CTLA4 Fc fusion immobilized by amine reactive chemistry
[2] = biological target: DR5 (UniProt O14763 56-440, limits assumed); assay: cell-based or functional assay

Chain of Fc fusion protein of Human CTLA4 (human) (P16410 36-161 limits assumed): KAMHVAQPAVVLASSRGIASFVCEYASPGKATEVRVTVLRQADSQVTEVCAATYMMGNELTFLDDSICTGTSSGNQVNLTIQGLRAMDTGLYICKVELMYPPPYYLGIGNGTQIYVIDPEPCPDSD

Kd [1]: 2 nM
Molecule: Anti CTLA4 IgG (BioLegend A3.B10.G1) (antibody)

B1: anti-DR5 IgM (antibody, V domains shown)
VH: EVQLVQSGGGVERPGGSLRLSCAASGFTFDDYGMSWVRQAPGKGLEWVSGINWNGGSTGYADSVKGRVTISRDNAKNSLYLQMNSLRAEDTAVYYCAKILGAGRGWYFDLWGKGTTVTVSS
VL: SSELTQDPAVSVALGQTVRITCQGDSLRSYYASWYQQKPGQAPVLVIYGKNNRPSGIPDRFSGSSSGNTASLTITGAQAEDEADYYCNSRDSSGNHVVFGGGTKLTVLG
cytotoxic effect, cell viability of COLO205 cells (Cell-Titer Glo), fold against the corresponding IgG [2]: > 1000 fold
